The text below walks through data of the Human Domainome abundance scans (Beltran et al. 2025).

± gives the uncertainty stated by the source.

A short description of this data set: abundance fitness (aPCA) (normalised: wild type 0, dead -1); higher = more abundant; growth selection in yeast, the domain comes from the species named. To be noted: Homo sapiens.
On to “Lipoamide acyltransferase component of branched-chain alpha-keto acid dehydrogenase complex, mitochondrial K187R, P11182”, for which the abundance fitness was -0.04 ± 0.039.

Regarding “Lipoamide acyltransferase component of branched-chain alpha-keto acid dehydrogenase complex, mitochondrial K187S, P11182”, the abundance fitness is -0.045 ± 0.054.

“Lipoamide acyltransferase component of branched-chain alpha-keto acid dehydrogenase complex, mitochondrial K187T, P11182” registered an abundance fitness of -0.097 ± 0.057.

For the substance “Lipoamide acyltransferase component of branched-chain alpha-keto acid dehydrogenase complex, mitochondrial K187V, P11182”, the abundance fitness is -0.139 ± 0.099.

“Lipoamide acyltransferase component of branched-chain alpha-keto acid dehydrogenase complex, mitochondrial K187W, P11182”: the abundance fitness was -0.538 ± 0.05.

Take “Lipoamide acyltransferase component of branched-chain alpha-keto acid dehydrogenase complex, mitochondrial K196A, P11182”: the abundance fitness was -0.054 ± 0.037.

On to “Lipoamide acyltransferase component of branched-chain alpha-keto acid dehydrogenase complex, mitochondrial K196C, P11182”, for which the abundance fitness is -0.22 ± 0.051.

In the case of “Lipoamide acyltransferase component of branched-chain alpha-keto acid dehydrogenase complex, mitochondrial K196F, P11182”, the abundance fitness was -0.408 ± 0.062.

“Lipoamide acyltransferase component of branched-chain alpha-keto acid dehydrogenase complex, mitochondrial K196G, P11182” returned an abundance fitness of -0.159 ± 0.036.

Substance “Lipoamide acyltransferase component of branched-chain alpha-keto acid dehydrogenase complex, mitochondrial K196H, P11182” registered an abundance fitness of -0.17 ± 0.062.

Consider “Lipoamide acyltransferase component of branched-chain alpha-keto acid dehydrogenase complex, mitochondrial K196I, P11182”, for which the abundance fitness was -0.185 ± 0.068.

In the case of “Lipoamide acyltransferase component of branched-chain alpha-keto acid dehydrogenase complex, mitochondrial K196L, P11182”, the abundance fitness was -0.175 ± 0.04.

As to “Lipoamide acyltransferase component of branched-chain alpha-keto acid dehydrogenase complex, mitochondrial K196M, P11182”, the abundance fitness was -0.142 ± 0.053.

“Lipoamide acyltransferase component of branched-chain alpha-keto acid dehydrogenase complex, mitochondrial K196N, P11182” registered an abundance fitness of -0.053 ± 0.076.

Substance “Lipoamide acyltransferase component of branched-chain alpha-keto acid dehydrogenase complex, mitochondrial K196P, P11182” displayed an abundance fitness of -0.051 ± 0.047.

Consider “Lipoamide acyltransferase component of branched-chain alpha-keto acid dehydrogenase complex, mitochondrial K196Q, P11182”, for which the abundance fitness is -0.077 ± 0.047.

“Lipoamide acyltransferase component of branched-chain alpha-keto acid dehydrogenase complex, mitochondrial K196R, P11182” had an abundance fitness of -0.026 ± 0.039.

With “Lipoamide acyltransferase component of branched-chain alpha-keto acid dehydrogenase complex, mitochondrial K196S, P11182”, the abundance fitness was -0.121 ± 0.044.

Substance “Lipoamide acyltransferase component of branched-chain alpha-keto acid dehydrogenase complex, mitochondrial K196T, P11182” gave an abundance fitness of -0.079 ± 0.044.

Consider “Lipoamide acyltransferase component of branched-chain alpha-keto acid dehydrogenase complex, mitochondrial K196V, P11182”, for which the abundance fitness was -0.124 ± 0.037.

“Lipoamide acyltransferase component of branched-chain alpha-keto acid dehydrogenase complex, mitochondrial K196W, P11182” gave an abundance fitness of -0.52 ± 0.053.

For the substance “Lipoamide acyltransferase component of branched-chain alpha-keto acid dehydrogenase complex, mitochondrial K196Y, P11182”, the abundance fitness is -0.222 ± 0.058.

On to “Lipoamide acyltransferase component of branched-chain alpha-keto acid dehydrogenase complex, mitochondrial K202A, P11182”, for which the abundance fitness was 0.039 ± 0.042.

Turning to “Lipoamide acyltransferase component of branched-chain alpha-keto acid dehydrogenase complex, mitochondrial K202C, P11182”, the abundance fitness is -0.282 ± 0.086.

“Lipoamide acyltransferase component of branched-chain alpha-keto acid dehydrogenase complex, mitochondrial K202D, P11182” yielded an abundance fitness of -0.215 ± 0.058.

With “Lipoamide acyltransferase component of branched-chain alpha-keto acid dehydrogenase complex, mitochondrial K202E, P11182”, the abundance fitness is 0.069 ± 0.052.

Substance “Lipoamide acyltransferase component of branched-chain alpha-keto acid dehydrogenase complex, mitochondrial K202G, P11182” yielded an abundance fitness of -0.135 ± 0.038.

Consider “Lipoamide acyltransferase component of branched-chain alpha-keto acid dehydrogenase complex, mitochondrial K202I, P11182”, for which the abundance fitness was -0.017 ± 0.17.

In turn, “Lipoamide acyltransferase component of branched-chain alpha-keto acid dehydrogenase complex, mitochondrial K202L, P11182” displayed an abundance fitness of -0.118 ± 0.047.

With “Lipoamide acyltransferase component of branched-chain alpha-keto acid dehydrogenase complex, mitochondrial K202M, P11182”, the abundance fitness is -0.089 ± 0.053.

“Lipoamide acyltransferase component of branched-chain alpha-keto acid dehydrogenase complex, mitochondrial K202P, P11182” had an abundance fitness of 0.011 ± 0.052.

“Lipoamide acyltransferase component of branched-chain alpha-keto acid dehydrogenase complex, mitochondrial K202Q, P11182” had an abundance fitness of -0.088 ± 0.049.

“Lipoamide acyltransferase component of branched-chain alpha-keto acid dehydrogenase complex, mitochondrial K202R, P11182” yielded an abundance fitness of -0.001 ± 0.037.
